The labels stand for the following.
T1: G9a and GLP (Homo sapiens, UniProt Q96KQ7+Q9H9B1)
T1 sequence (Q96KQ7 2-1210 limits assumed): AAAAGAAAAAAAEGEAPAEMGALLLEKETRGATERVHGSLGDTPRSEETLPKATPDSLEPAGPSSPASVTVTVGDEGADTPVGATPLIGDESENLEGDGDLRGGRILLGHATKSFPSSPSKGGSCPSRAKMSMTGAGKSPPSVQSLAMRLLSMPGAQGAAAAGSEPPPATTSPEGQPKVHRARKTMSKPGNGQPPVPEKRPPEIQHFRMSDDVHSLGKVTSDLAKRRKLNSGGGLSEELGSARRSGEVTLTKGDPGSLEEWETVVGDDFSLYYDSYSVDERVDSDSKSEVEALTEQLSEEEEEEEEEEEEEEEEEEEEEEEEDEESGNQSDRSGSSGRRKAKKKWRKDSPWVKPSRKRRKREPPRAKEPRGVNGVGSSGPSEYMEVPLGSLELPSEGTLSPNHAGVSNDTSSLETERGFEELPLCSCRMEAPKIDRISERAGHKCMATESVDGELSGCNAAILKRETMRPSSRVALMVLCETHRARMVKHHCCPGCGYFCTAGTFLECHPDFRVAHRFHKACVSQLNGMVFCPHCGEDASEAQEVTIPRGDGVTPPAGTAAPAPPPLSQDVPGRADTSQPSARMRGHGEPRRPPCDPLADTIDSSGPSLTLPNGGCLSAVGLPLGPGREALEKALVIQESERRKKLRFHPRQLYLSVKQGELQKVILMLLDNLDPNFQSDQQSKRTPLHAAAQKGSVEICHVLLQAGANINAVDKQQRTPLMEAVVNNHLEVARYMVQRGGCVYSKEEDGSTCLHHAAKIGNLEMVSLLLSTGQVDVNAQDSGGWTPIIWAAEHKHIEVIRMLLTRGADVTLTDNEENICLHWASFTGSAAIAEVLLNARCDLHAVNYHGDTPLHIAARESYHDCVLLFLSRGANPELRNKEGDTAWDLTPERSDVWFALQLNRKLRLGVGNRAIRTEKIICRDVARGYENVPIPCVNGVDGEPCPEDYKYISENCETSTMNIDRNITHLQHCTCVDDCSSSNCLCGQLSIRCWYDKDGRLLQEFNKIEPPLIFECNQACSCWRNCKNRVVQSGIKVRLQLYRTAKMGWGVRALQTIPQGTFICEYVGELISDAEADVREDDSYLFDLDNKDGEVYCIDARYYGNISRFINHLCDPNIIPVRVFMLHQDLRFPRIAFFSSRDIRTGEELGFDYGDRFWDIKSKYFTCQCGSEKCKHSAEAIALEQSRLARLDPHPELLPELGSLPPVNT
T1 sequence (Q9H9B1 2-1298 limits assumed): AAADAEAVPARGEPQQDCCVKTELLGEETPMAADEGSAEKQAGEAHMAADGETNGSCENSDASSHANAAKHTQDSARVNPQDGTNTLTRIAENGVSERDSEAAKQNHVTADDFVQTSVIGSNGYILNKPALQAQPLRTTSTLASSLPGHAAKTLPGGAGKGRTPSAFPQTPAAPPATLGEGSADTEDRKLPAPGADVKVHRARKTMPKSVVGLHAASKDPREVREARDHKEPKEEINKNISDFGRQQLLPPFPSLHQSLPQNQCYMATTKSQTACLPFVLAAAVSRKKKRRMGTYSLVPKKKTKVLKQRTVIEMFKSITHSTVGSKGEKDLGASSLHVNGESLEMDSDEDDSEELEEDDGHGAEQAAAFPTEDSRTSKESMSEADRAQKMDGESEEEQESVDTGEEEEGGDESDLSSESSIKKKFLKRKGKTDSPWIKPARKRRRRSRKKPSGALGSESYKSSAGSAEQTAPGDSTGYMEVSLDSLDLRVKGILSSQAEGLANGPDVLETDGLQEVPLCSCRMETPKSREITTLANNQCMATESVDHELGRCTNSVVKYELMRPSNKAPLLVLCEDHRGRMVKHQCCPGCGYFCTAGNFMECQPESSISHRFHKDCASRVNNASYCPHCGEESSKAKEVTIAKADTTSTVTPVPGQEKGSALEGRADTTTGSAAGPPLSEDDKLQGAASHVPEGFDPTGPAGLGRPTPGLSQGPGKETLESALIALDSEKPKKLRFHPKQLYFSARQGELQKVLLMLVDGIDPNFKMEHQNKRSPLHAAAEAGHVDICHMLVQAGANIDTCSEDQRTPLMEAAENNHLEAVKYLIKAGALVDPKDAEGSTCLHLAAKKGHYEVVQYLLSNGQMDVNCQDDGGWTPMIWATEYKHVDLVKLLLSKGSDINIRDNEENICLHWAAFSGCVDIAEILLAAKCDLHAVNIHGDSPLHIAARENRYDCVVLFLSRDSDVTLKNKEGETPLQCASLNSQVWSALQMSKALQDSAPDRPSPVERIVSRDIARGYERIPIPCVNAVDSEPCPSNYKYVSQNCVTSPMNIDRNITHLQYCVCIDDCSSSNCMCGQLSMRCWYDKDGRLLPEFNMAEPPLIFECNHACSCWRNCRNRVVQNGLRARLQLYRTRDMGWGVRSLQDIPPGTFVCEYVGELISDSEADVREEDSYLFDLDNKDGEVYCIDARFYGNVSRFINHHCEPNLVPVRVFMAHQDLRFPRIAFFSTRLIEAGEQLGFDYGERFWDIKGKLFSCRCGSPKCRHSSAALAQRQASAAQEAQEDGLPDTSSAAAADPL

B1: HNRPDL (protein, UniProt O14979 1-420, looked up)
Heterogeneous nuclear …: MEVPPRLSHVPPPLFPSAPATLASRSLSHWRPRPPRQLAPLLPSLAPSSARQGARRAQRHVTAQQPSRLAGGAAIKGGRRRRPDLFRRHFKSSSIQRSAAAAAATRTARQHPPADSSVTMEDMNEYSNIEEFAEGSKINASKNQQDDGKMFIGGLSWDTSKKDLTEYLSRFGEVVDCTIKTDPVTGRSRGFGFVLFKDAASVDKVLELKEHKLDGKLIDPKRAKALKGKEPPKKVFVGGLSPDTSEEQIKEYFGAFGEIENIELPMDTKTNERRGFCFITYTDEEPVKKLLESRYHQIGSGKCEIKVAQPKEVYRQQQQQQKGGRGAAAGGRGGTRGRGRGQGQNWNQGFNNYYDQGYGNYNSAYGGDQNYSGYGGYDYTGYNYGNYGYGQGYADYSGQQSTYGKASRGGGNHQNNYQPY
B2: DDX3X (protein, UniProt O00571 2-662, looked up)
ATP-dependent RNA helicase …: SHVAVENALGLDQQFAGLDLNSSDNQSGGSTASKGRYIPPHLRNREATKGFYDKDSSGWSSSKDKDAYSSFGSRSDSRGKSSFFSDRGSGSRGRFDDRGRSDYDGIGSRGDRSGFGKFERGGNSRWCDKSDEDDWSKPLPPSERLEQELFSGGNTGINFEKYDDIPVEATGNNCPPHIESFSDVEMGEIIMGNIELTRYTRPTPVQKHAIPIIKEKRDLMACAQTGSGKTAAFLLPILSQIYSDGPGEALRAMKENGRYGRRKQYPISLVLAPTRELAVQIYEEARKFSYRSRVRPCVVYGGADIGQQIRDLERGCHLLVATPGRLVDMMERGKIGLDFCKYLVLDEADRMLDMGFEPQIRRIVEQDTMPPKGVRHTMMFSATFPKEIQMLARDFLDEYIFLAVGRVGSTSENITQKVVWVEESDKRSFLLDLLNATGKDSLTLVFVETKKGADSLEDFLYHEGYACTSIHGDRSQRDREEALHQFRSGKSPILVATAVAARGLDISNVKHVINFDLPSDIEEYVHRIGRTGRVGNLGLATSFFNERNINITKDLLDLLVEAKQEVPSWLENMAYEHHYKGSSRGRSKSSRFSGGFGARDYRQSSGASSSSFSSSRASSSRSGGGGHGSSRGFGGGGYGGFYNSDGYGGNYNSQGVDWWGN
B3: KIF2A (protein, UniProt O00139 1-706, looked up)
Kinesin-like protein KIF2A: MATANFGKIQIGIYVEIKRSDGRIHQAMVTSLNEDNESVTVEWIENGDTKGKEIDLESIFSLNPDLVPDEEIEPSPETPPPPASSAKVNKIVKNRRTVASIKNDPPSRDNRVVGSARARPSQFPEQSSSAQQNGSVSDISPVQAAKKEFGPPSRRKSNCVKEVEKLQEKREKRRLQQQELREKRAQDVDATNPNYEIMCMIRDFRGSLDYRPLTTADPIDEHRICVCVRKRPLNKKETQMKDLDVITIPSKDVVMVHEPKQKVDLTRYLENQTFRFDYAFDDSAPNEMVYRFTARPLVETIFERGMATCFAYGQTGSGKTHTMGGDFSGKNQDCSKGIYALAARDVFLMLKKPNYKKLELQVYATFFEIYSGKVFDLLNRKTKLRVLEDGKQQVQVVGLQEREVKCVEDVLKLIDIGNSCRTSGQTSANAHSSRSHAVFQIILRRKGKLHGKFSLIDLAGNERGADTSSADRQTRLEGAEINKSLLALKECIRALGRNKPHTPFRASKLTQVLRDSFIGENSRTCMIATISPGMASCENTLNTLRYANRVKELTVDPTAAGDVRPIMHHPPNQIDDLETQWGVGSSPQRDDLKLLCEQNEEEVSPQLFTFHEAVSQMVEMEEQVVEDHRAVFQESIRWLEDEKALLEMTEEVDYDVDSYATQLEAILEQKIDILTELRDKVKSFRAALQEEEQASKQINPKRPRAL
B4: DHX15 (protein, UniProt O43143 1-795, looked up)
ATP-dependent RNA helicase …: MSKRHRLDLGEDYPSGKKRAGTDGKDRDRDRDREDRSKDRDRERDRGDREREREKEKEKELRASTNAMLISAGLPPLKASHSAHSTHSAHSTHSTHSAHSTHAGHAGHTSLPQCINPFTNLPHTPRYYDILKKRLQLPVWEYKDRFTDILVRHQSFVLVGETGSGKTTQIPQWCVEYMRSLPGPKRGVACTQPRRVAAMSVAQRVADEMDVMLGQEVGYSIRFEDCSSAKTILKYMTDGMLLREAMNDPLLERYGVIILDEAHERTLATDILMGVLKEVVRQRSDLKVIVMSATLDAGKFQIYFDNCPLLTIPGRTHPVEIFYTPEPERDYLEAAIRTVIQIHMCEEEEGDLLLFLTGQEEIDEACKRIKREVDDLGPEVGDIKIIPLYSTLPPQQQQRIFEPPPPKKQNGAIGRKVVVSTNIAETSLTIDGVVFVIDPGFAKQKVYNPRIRVESLLVTAISKASAQQRAGRAGRTRPGKCFRLYTEKAYKTEMQDNTYPEILRSNLGSVVLQLKKLGIDDLVHFDFMDPPAPETLMRALELLNYLAALNDDGDLTELGSMMAEFPLDPQLAKMVIASCDYNCSNEVLSITAMLSVPQCFVRPTEAKKAADEAKMRFAHIDGDHLTLLNVYHAFKQNHESVQWCYDNFINYRSLMSADNVRQQLSRIMDRFNLPRRSTDFTSRDYYINIRKALVTGYFMQVAHLERTGHYLTVKDNQVVQLHPSTVLDHKPEWVLYNEFVLTTKNYIRTCTDIKPEWLVKIAPQYYDMSNFPQCEAKRQLDRIIAKLQSKEYSQY

The first assay concerns 3×MBT domain of L3MBTL1. Nature of the assay: Triple SILAC pull-down, 3xMBT/3xMBTD355N ratio (cytoplasmic, nuclear and chromatin fractions of 293T cells).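 Also: proteins quantified with MaxQuant, requiring at least two unique peptides and quantification in both label directions, normalized to the mean of proteins from a digested loading control.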 Format: binding, human. As to conditions: SILAC ratio, pull-down 3xMBT vs 3xMBTD355N; experiment with UNC0638 in heavy SILAC media.
As to B1, the “3xMBT/D355N UNC Heavy” value came out at 2.81 log base 2.
On the same count and under the same terms, then B2, with 2.64 log base 2.
Still for that read-out and setting: then B3, with 2.05 log base 2; and B4, with 2.98 log base 2.

The assay is the same for the next values; noted with them: SILAC ratio, pull-down 3xMBT vs 3xMBTD355N; experiment with UNC0638 in light SILAC media.
Regarding B1, the “3xMBT/D355N UNC Light” value worked out at 3.02 log base 2.
Regarding B2, the “3xMBT/D355N UNC Light” value turned out to be 2.58 log base 2.
On the same count and under the same terms, the same measure for B3: 2.33 log base 2.
Take B4: the “3xMBT/D355N UNC Light” value turned out to be 2.54 log base 2.

The target of the next assay is T1, G9a and GLP. Nature of the assay: Triple SILAC pull-down after UNC0638 treatment of 293T cells, DMSO/UNC0638 ratio of protein captured by 3×MBT.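 Also: mass spectrometry (Q-Exactive) SILAC quantitation, DMSO/UNC0638 ratio computed after subtracting 3×MBTD355N mutant pull-down background, only proteins with at least twofold 3×MBT over mutant signal considered.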 Format: cell-based. On the set-up: cells were treated for 24 hours with UNC0638 at 2.5 μM or DMSO vehicle control; endogenous in cells; host or cells: HEK 293T. Conditions: SILAC ratio DMSO/UNC0638 of protein pulled down with 3xMBT; UNC0638 in heavy SILAC media.
As to B1, the “Relative to UNC0638 UNC Heavy” value is 0.16 log base 2.
Still for that read-out and setting: the same measure for B2: 0.25 log base 2.
B3: the “Relative to UNC0638 UNC Heavy” value is 0.23 log base 2.
The same measure, in the same setting: then B4, with 0.13 log base 2.

Still in this assay, the particulars now being: SILAC ratio DMSO/UNC0638 of protein pulled down with 3xMBT; UNC0638 in light SILAC media.
With B1, the “Relative to UNC0638 UNC Light” value is listed as 0.24 log base 2.
Turning to B2, the “Relative to UNC0638 UNC Light” value worked out at 0.14 log base 2.
On to B3, for which the “Relative to UNC0638 UNC Light” value was determined as 0.15 log base 2.
Turning to B4, the “Relative to UNC0638 UNC Light” value was 0.27 log base 2.

The assay is the same for the next values; noted with them: average of UNC Light and UNC Heavy experiments.
As for B1, the “Relative to UNC0638 Average” value was 0.20 log base 2.
Consider B2, for which the “Relative to UNC0638 Average” value was 0.20 log base 2.
On to B3, for which the “Relative to UNC0638 Average” value is 0.19 log base 2.
Turning to B4, the “Relative to UNC0638 Average” value came to 0.20 log base 2.

For the origin of these results see patent US20140274782A1, “AFFINITY REAGENTS AND METHODS FOR DETECTION, PURIFICATION, AND PROTEOMIC ANALYSIS OF METHYLATED PROTEINS” (The Board of Trustees of the Leland Stanford Junior …, priority 2013, published 2014).
